Experiment [1] has as its target human platelet thrombospondin (thrombospondin-1) (human) (UniProt P07996). Nature of the experiment: sandwich ELISA, Ab-4 capture, Ab-8 detection; analyte at 25.00 ng/mL. (ELISA stands for enzyme-linked immunosorbent assay.)
Experiment [2] has as its target recombinant human TSP fragment of ~140 kDa engineered to lack the N-terminal heparin-binding domain (human). The experiment is described as above.
For experiment [3], the target named is human platelet thrombospondin (thrombospondin-1) (human) (UniProt P07996). As to the kind of experiment: sandwich ELISA, Ab-4 capture, Ab-8 detection; analyte at 100.0 ng/mL.
Experiment [4] addresses recombinant human TSP fragment of ~140 kDa engineered to lack the N-terminal heparin-binding domain (human). The description is as above.
The target in experiment [5] is human platelet thrombospondin (thrombospondin-1) (human) (UniProt P07996). Nature of the experiment: sandwich ELISA, Ab-4 capture, Ab-8 detection; analyte at 6.250 ng/mL.
The target of experiment [6] is recombinant human TSP fragment of ~140 kDa engineered to lack the N-terminal heparin-binding domain (human). The experiment is described as above.
Experiment [7] concerns the target human platelet thrombospondin (thrombospondin-1) (human) (UniProt P07996). As to the kind of experiment: sandwich ELISA, Ab-4 capture, Ab-8 detection; analyte at 200.0 ng/mL.
The target in experiment [8] is recombinant human TSP fragment of ~140 kDa engineered to lack the N-terminal heparin-binding domain (human). The description is as above.
Experiment [9] addresses human platelet thrombospondin (thrombospondin-1) (human) (UniProt P07996). As to the kind of experiment: sandwich ELISA, Ab-4 capture, Ab-8 detection; analyte at 12.50 ng/mL.
Experiment [10] addresses recombinant human TSP fragment of ~140 kDa engineered to lack the N-terminal heparin-binding domain (human). The experiment is described as above.
Experiment [11] addresses human platelet thrombospondin (thrombospondin-1) (human) (UniProt P07996). Nature of the experiment: sandwich ELISA, Ab-4 capture, Ab-8 detection; analyte at 50.00 ng/mL.
In experiment [12] the target is recombinant human TSP fragment of ~140 kDa engineered to lack the N-terminal heparin-binding domain (human). Described as above.
In experiment [13] the target is human platelet thrombospondin (thrombospondin-1) (human) (UniProt P07996). Nature of the experiment: sandwich ELISA, Ab-4 capture, Ab-8 detection; analyte at 3.125 ng/mL.
For experiment [14], the target named is recombinant human TSP fragment of ~140 kDa engineered to lack the N-terminal heparin-binding domain (human). The experiment is described as above.

Chain of UniProt P07996 (P07996 19-1170 T523A): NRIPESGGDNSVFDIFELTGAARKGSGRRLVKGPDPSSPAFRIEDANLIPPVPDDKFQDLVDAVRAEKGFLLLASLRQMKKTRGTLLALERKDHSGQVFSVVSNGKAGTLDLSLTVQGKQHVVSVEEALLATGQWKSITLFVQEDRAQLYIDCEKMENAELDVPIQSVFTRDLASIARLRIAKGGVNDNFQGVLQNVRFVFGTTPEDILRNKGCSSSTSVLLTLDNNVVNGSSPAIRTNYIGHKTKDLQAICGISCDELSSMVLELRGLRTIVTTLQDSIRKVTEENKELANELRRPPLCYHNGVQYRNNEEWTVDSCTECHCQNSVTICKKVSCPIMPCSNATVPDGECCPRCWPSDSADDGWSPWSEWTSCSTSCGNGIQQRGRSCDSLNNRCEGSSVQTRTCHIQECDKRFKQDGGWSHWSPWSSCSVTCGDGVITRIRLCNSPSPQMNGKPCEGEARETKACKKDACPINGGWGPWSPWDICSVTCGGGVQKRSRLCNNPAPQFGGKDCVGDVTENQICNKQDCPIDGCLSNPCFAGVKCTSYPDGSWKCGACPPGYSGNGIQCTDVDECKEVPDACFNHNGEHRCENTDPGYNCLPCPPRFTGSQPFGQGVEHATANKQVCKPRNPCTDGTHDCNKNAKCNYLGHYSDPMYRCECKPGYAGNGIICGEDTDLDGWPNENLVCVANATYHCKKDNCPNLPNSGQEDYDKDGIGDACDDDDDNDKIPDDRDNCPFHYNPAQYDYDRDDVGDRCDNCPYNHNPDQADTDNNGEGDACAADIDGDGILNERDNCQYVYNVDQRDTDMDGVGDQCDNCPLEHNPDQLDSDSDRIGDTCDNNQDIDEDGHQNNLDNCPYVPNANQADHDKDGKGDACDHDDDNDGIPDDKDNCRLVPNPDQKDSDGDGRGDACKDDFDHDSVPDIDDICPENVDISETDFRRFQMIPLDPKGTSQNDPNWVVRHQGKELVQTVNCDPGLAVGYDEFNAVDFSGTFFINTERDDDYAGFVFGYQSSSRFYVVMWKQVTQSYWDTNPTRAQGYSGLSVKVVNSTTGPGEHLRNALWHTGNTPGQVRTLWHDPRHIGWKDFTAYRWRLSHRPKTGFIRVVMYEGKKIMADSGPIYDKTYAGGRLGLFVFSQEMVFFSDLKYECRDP

For the substance TSP Ab-4 (Clone A6.1) (antibody), the ELISA OD-450 turned out to be 1.08 OD-450 in [1]; 1.17 OD-450 in experiment [2]; 2.09 OD-450 in [3]; 2.2 OD-450 in experiment [4]; 0.514 OD-450 in [5]; 0.4 OD-450 in experiment [6]. Further, the ELISA OD-450 in experiment [7] was found to be 2.5 OD-450; in [8] it was 2.56 OD-450; in experiment [9] it was 0.713 OD-450; in [10], 0.662 OD-450; in experiment [11], 1.57 OD-450; in experiment [12], 1.8 OD-450. In addition, the results for the ELISA OD-450 in [13] and in experiment [14] were 0.345 OD-450 and 0.279 OD-450, respectively.
